Source: paper PMC6029887 (Cell reports, 2018)

Assays:
[1] = target: chimera cad-11EC16EC2 (cadherin-11 EC1 joined to cadherin-6 EC2) (mouse) (UniProt P97326); assay: AUC
[2] = target: chimera cad-6EC111EC2 (cadherin-6 EC1 joined to cadherin-11 EC2) (mouse); assay: AUC
[3] = target: Cadherin-6 Y20L H97Q (LQ) specificity mutant, adhesive fragment (mouse) (mouse); assay: AUC
[4] = target: Cadherin-6 M3V Y20L H97Q E89P (VLQP) specificity mutant, adhesive fragment (mouse) (mouse); assay: AUC
[5] = target: Cadherin-11 V3M L20Y Q97H P89E (MYHE) specificity mutant, adhesive fragment (mouse) (mouse); assay: AUC
[6] = target: Cadherin-11 L20Y Q97H (YH) specificity mutant, adhesive fragment (mouse) (mouse); assay: AUC
[7] = target: cadherin-18 EC1-EC2 adhesive fragment (mouse), wild-type (mouse); assay: AUC
AUC = target: the molecule itself; assay: AUC
[8] = target: T1, Cys-tagged cadherin-7 adhesive fragment (mouse) (mouse, UniProt Q8BM92 48-254); assay: SPR
T1 sequence: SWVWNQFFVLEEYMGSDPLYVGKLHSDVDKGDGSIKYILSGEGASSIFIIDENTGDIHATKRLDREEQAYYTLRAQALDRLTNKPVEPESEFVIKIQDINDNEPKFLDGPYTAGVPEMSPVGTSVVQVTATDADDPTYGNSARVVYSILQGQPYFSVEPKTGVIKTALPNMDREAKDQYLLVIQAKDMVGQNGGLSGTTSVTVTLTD

[9] = target: T2, Cys-tagged cadherin-10 adhesive fragment (mouse) (mouse, UniProt P70408 55-261); assay: SPR
T2 sequence: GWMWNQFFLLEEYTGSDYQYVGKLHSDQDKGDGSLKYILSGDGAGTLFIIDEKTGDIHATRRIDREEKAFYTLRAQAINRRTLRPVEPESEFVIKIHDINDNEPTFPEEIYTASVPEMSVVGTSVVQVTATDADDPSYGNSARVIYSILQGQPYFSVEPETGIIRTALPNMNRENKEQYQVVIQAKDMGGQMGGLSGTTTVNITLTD

[10] = target: T3, Cys-tagged cadherin-6 adhesive fragment (mouse) (mouse, UniProt P97326 54-260); assay: SPR
T3 sequence: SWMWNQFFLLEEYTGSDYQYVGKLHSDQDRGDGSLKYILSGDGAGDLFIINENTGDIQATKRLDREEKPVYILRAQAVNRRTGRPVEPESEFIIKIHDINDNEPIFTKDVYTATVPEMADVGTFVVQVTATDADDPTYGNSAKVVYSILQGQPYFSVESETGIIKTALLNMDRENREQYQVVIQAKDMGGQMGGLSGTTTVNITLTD

**Q.** How did the Kd [1] turn out when “chimera cad-11EC16EC2 (cadherin-11 EC1 joined to cadherin-6 EC2) (from UniProt P97326 151-260) (domain or fragment)” was run?
**A.** Its Kd is 15.6 µM.

**Q.** Which Kd [2] does the source give for “chimera cad-6EC111EC2 (cadherin-6 EC1 joined to cadherin-11 EC2) (domain or fragment)” here?
**A.** Its Kd is 5.6 µM.

**Q.** “Cadherin-6 Y20L H97Q (LQ) specificity mutant, adhesive fragment (mouse) (domain or fragment)” was tested. Which Kd [3] did it give?
**A.** The Kd was 9.63 µM.

**Q.** How did the Kd [4] turn out when “Cadherin-6 M3V Y20L H97Q E89P (VLQP) specificity mutant, adhesive fragment (mouse) (domain or fragment)” was run?
**A.** Its Kd is 6.73 µM.

**Q.** Which Kd [5] does the source give for “Cadherin-11 V3M L20Y Q97H P89E (MYHE) specificity mutant, adhesive fragment (mouse) (domain or fragment)” here?
**A.** The Kd was 8.2 µM.

**Q.** With “Cadherin-11 L20Y Q97H (YH) specificity mutant, adhesive fragment (mouse) (domain or fragment)” as the molecule, how does the Kd [6] read?
**A.** Its Kd is 11.1 µM.

**Q.** How did the Kd [7] turn out when “cadherin-18 EC1-EC2 adhesive fragment (mouse), wild-type (domain or fragment)” was run?
**A.** Its Kd is 16.8 µM.

B1: cadherin-6 EC1-EC2 adhesive fragment (mouse), wild-type (domain or fragment)
chain: SWMWNQFFLLEEYTGSDYQYVGKLHSDQDRGDGSLKYILSGDGAGDLFIINENTGDIQATKRLDREEKPVYILRAQAVNRRTGRPVEPESEFIIKIHDINDNEPIFTKDVYTATVPEMADVGTFVVQVTATDADDPTYGNSAKVVYSILQGQPYFSVESETGIIKTALLNMDRENREQYQVVIQAKDMGGQMGGLSGTTTVNITLTD
**Q.** Which Kd (AUC) does the source give for B1 here?
**A.** Its Kd is 3.1 µM.

**Q.** Does B1 bind [8]?
**A.** Result: binds

**Q.** Does B1 bind [9]?
**A.** Result: binds

B2: cadherin-20 EC1-EC2 adhesive fragment (mouse), wild-type (domain or fragment)
chain: SWVWNQFFVLEEYTGTDPLYVGKLHSDMDRGDGSIKYILSGEGAGIVFTIDDTTGDIHAIQRLDREERAQYTLRAQALDRRTGRPMEPESEFIIKIQDINDNEPKFLDGPYIATVPEMSPVGTSVIQVTATDADDPTYGNSARVVYSILQGQPYFSVDSKTGVIRTALMNMDREAKEYYEVIIQAKDMGGQLGGLAGTTTVNITLSDVNDNPPRF
**Q.** B2 was tested. Which Kd (AUC) did it give?
**A.** The Kd was 9.3 µM.

B3: cadherin-10 EC1-EC2 adhesive fragment (mouse), wild-type (domain or fragment)
chain: GWMWNQFFLLEEYTGSDYQYVGKLHSDQDKGDGSLKYILSGDGAGTLFIIDEKTGDIHATRRIDREEKAFYTLRAQAINRRTLRPVEPESEFVIKIHDINDNEPTFPEEIYTASVPEMSVVGTSVVQVTATDADDPSYGNSARVIYSILQGQPYFSVEPETGIIRTALPNMNRENKEQYQVVIQAKDMGGQMGGLSGTTTVNITLTD
**Q.** What does the source list for B3?
**A.** Kd (AUC): 42.2 µM; binding result [8]: binds; binding result [10]: binds

B4: cadherin-22 EC1-EC2 adhesive fragment (mouse), wild-type (domain or fragment)
chain: GWVWNQFFVVEEYTGTEPLYVGKIHSDSDEGDGTIKYTISGEGAGTIFLIDELTGDIHATERLDREQKTFYTLRAQARDRATNRLLEPESEFIIKVQDINDSEPRFLHGPYIGSVAELSPTGTSVMQVMASDADDPTYGSSARLVYSVLDGEHHFTVDPKTGVIRTAVPDLDRESQERYEVVIQATDMAGQLGGLSGSTTVTIVVTD
**Q.** Which Kd (AUC) does the source give for B4 here?
**A.** Its Kd is 3.9 µM.

B5: cadherin-9 EC1-EC2 adhesive fragment (mouse), wild-type (domain or fragment)
chain: GWMWNQFFLLEEYTGTDTQYVGKLHTDQDKGDGNLKYILTGDGAGNLFVIDENTGDIHAAKRLDREEKSLYILRAKAIDRKTGRQVEPESEFIIKIHDINDNEPKFTKDLYTASVPEMSGVGTSVIQVTATDADDANYGNSAKVVYSILQGQPYFSVDPESGIIKTALPDMSRENKEQYQVVIQAKDMGGQMGGLSGTTTVNITLTDVNNNPPRF
**Q.** B5 was tested. Which Kd (AUC) did it give?
**A.** Its Kd is 17 µM.

B6: cadherin-8 EC1-EC3 fragment (mouse), wild-type (domain or fragment)
chain: GWVWNQMFVLEEFSGPEPILVGRLHTDLDPGSKKIKYILSGDGAGTIFQINDITGDIHAIKRLDREEKAEYTLTAQAVDFETNKPLEPPSEFIIKVQDINDNAPEFLNGPYHATVPEMSILGTSVTNVTATDADDPVYGNSAKLVYSILEGQPYFSIEPETAIIKTALPNMDREAKEEYLVVIQAKDMGGHSGGLSGTTTLTVTLTDVNDNPPKFAQSLYHFSVPEDVVLGTAIGRVKANDQDIGENAQSSYDIIDGDGTALFEITSDAQAQDGVIRLRKPLDFETKKSYTLKVEAANIHIDPRFSSRGPFKDTATVKIVVEDADEPPVF
**Q.** For B6, which Kd (AUC) is on record?
**A.** Its Kd is 15 µM.

B7: cadherin-11 EC1-EC2 adhesive fragment (mouse), wild-type (domain or fragment)
chain: GWVWNQFFVIEEYTGPDPVLVGRLHSDIDSGDGNIKYILSGEGAGTIFVIDDKSGNIHATKTLDREERAQYTLMAQAVDRDTNRPLEPPSEFIVKVQDINDNPPEFLHEIYHANVPERSNVGTSVIQVTASDADDPTYGNSAKLVYSILEGQPYFSVEAQTGIIRTALPNMDREAKEEYHVVIQAKDMGGHMGGLSGTTKVTITLTDVNDNPPKF
**Q.** B7 was tested. Which Kd (AUC) did it give?
**A.** Its Kd is 33.8 µM.

B8: cadherin-7 EC1-EC2 adhesive fragment (mouse), wild-type (domain or fragment)
chain: SWVWNQFFVLEEYMGSDPLYVGKLHSDVDKGDGSIKYILSGEGASSIFIIDENTGDIHATKRLDREEQAYYTLRAQALDRLTNKPVEPESEFVIKIQDINDNEPKFLDGPYTAGVPEMSPVGTSVVQVTATDADDPTYGNSARVVYSILQGQPYFSVEPKTGVIKTALPNMDREAKDQYLLVIQAKDMVGQNGGLSGTTSVTVTLTD
**Q.** With B8 as the molecule, how does the Kd (AUC) read?
**A.** Its Kd is 32.2 µM.

**Q.** Does B8 bind [9]?
**A.** Result: binds

**Q.** Does B8 bind [10]?
**A.** Result: binds

B9: cadherin-24 EC1-EC3 fragment (mouse), wild-type (domain or fragment)
chain: SWVWNQFFVIEEYSGPEPVLIGKLHSDVDRGEGRTKYLLTGEGAGTVFVIDEATGNIHVTKSLDREEKAQYVLLAQAVDRASNRPLEPPSEFIIKVQDINDNPPVFPLGPYHATVPEMSNVGTSVIQVTAHDADDPSYGNSAKLVYTVLDGLPFFSVDPQTGVVRTAIPNMDRETQEEFLVVIQAKDMGGHMGGLSGSTTVTVTLSDVNDNPPKFPQSLYQFSVVETAGPGTLVGRLKAQDPDLGDNALVAYSILNGEGSEVFSISTDSQGQDGLLTVRKPLDFETRRSYTFRVEATNTLIDPAYLRRGPFKDVASVRVTVQDAPEPPAF
**Q.** How did the Kd (AUC) turn out when B9 was run?
**A.** Its Kd is 8.2 µM.

B10: cadherin-12 EC1-EC2 adhesive fragment (mouse), wild-type (domain or fragment)
chain: GWVWNQFFVLEEYMGSEPQYVGKLHSDLDKGEGTVKYTLSGDGAGTVFTIDETTGDIHAIRSLDREEKPFYTLRAQAVDIETRKPLEPESEFIIKVQDINDNEPKFLDGPYVASVPEMSPVGAYVLQVKATDADDPTYGNSARVVYSILQGQPYFSIDPKTGVIRTALPNMDREVKEQYQVLIQAKDMGGQLGGLAGTTVVNITLTDVNDNPPRF
**Q.** B10 was tested. Which Kd (AUC) did it give?
**A.** Its Kd is 8.3 µM.
